Results reported in patent US20190234935A1 (Janssen / Centocor, published 2019).

Legend:
Test in all cases: FACS on transfected HEK293F cells
[1] = target: T1, N-terminally flag tagged full-length GFRα4 on transiently transfected HEK293F cells (Homo sapiens (Human), UniProt Q9GZZ7 21-278)
T1 sequence: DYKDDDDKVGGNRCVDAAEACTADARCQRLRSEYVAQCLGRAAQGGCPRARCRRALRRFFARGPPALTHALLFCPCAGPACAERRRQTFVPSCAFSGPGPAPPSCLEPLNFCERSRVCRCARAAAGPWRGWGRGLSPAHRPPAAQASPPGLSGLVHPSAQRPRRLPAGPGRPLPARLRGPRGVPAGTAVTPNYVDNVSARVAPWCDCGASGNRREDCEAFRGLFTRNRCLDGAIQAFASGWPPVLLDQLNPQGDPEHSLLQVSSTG
Procedure: (§1) For the confirmation of specific binding of GDF15 to GFRAL, HEK293F cells expressing the N-terminally flag tagged GFRAL, GFRα1, GFRα2, GFRα3 or GFRα4 were incubated with Fc-GDF15 and the binding was analyzed by FACS. Briefly, transiently transfected cells were spun down two days post transfection, washed with 1×BD staining buffer (BD Pharmingen) and treated with 5 μg/ml of Fc-GDF15 by incubating at 4° C. for 1 hour in 1×BD staining buffer (BD Pharmingen). Cells were subsequently washed and stained with the secondary antibody, goat anti-human IgG conjugated with Alexa Fluor 647 (AF647, Life Technologies), at 4° C. for 30 min, for the detection of Fc-GDF15 binding. Cells from the same batch of transfection were also stained with an Fc isotype negative control, and with FITC-labeled anti-flag antibody (Sigma) for the detection of cell surface expression, and DAPI for live/dead staining. The stained cells were analyzed on BD Fortessa LSR.

[2] = target: T2, N-terminally flag tagged full-length GFRα1 on transiently transfected HEK293F cells (Homo sapiens (Human), UniProt P56159 25-429)
T2 sequence: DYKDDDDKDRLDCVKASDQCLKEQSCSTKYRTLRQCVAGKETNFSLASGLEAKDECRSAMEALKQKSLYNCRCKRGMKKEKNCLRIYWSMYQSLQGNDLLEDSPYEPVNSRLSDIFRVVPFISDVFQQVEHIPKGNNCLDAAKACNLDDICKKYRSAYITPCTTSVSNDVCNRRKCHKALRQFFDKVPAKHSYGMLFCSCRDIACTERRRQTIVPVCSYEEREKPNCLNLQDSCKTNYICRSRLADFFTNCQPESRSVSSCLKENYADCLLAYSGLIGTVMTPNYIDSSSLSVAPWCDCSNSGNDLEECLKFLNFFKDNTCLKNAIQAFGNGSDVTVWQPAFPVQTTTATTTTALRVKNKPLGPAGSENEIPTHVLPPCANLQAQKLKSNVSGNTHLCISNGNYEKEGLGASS
Procedure: as §1

[3] = target: T3, N-terminally flag tagged full-length GFRα2 on transiently transfected HEK293F cells (Homo sapiens (Human), UniProt O00451 22-444)
T3 sequence: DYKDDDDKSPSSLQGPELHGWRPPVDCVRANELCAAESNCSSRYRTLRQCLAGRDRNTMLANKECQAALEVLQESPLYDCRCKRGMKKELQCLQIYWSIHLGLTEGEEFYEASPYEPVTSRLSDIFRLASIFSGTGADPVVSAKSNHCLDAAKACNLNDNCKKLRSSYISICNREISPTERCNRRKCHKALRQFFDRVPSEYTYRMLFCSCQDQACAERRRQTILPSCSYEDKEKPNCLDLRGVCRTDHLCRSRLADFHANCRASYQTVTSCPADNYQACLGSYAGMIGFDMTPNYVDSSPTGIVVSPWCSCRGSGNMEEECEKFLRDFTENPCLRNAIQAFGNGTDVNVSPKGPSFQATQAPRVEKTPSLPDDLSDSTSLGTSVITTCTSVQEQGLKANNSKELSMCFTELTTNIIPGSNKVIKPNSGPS
Procedure: as §1

[4] = target: T4, N-terminally flag tagged full-length GFRα3 on transiently transfected HEK293F cells (Homo sapiens (Human), UniProt O60609 32-374)
T4 sequence: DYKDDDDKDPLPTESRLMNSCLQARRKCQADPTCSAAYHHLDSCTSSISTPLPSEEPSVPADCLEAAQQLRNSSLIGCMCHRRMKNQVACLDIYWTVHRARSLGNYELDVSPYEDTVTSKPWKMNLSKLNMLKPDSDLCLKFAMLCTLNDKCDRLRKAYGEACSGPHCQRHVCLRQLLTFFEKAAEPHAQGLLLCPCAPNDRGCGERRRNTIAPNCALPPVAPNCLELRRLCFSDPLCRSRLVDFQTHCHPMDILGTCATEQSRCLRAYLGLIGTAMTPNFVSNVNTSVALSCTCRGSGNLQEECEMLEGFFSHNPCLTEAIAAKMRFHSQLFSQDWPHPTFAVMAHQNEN
Procedure: as §1

Measured: binding result

B1: heterodimeric Fc-GDF15 fusion molecule (Fc fusion)
chain 1: CPPCPAPEAAGGPSVFLFPPKPKDTLMISRTPEVTCVVVDVSQEDPEVQFNWYVDGVEVHNAKTKPREEQFNSTYRVVSVLTVLHQDWLNGKEYKCKVSNKGLPSSIEKTISKAKGQPREPQVYTLPPSQEEMTKNQVSLSCAVKGFYPSDIAVEWESNGQPENNYKTTPPVLDSDGSFFLVSRLTVDKSRWQEGNVFSCSVMHEALHNHYTQKSLSLSLGKGSGGGARNGDHCPLGPGRCCRLHTVRASLEDLGWADWVLSPREVQVTMCIGACPSQFRAANMHAQIKTSLHRLKPDTVPAPCCVPASYNPMVLIQKTDTGVSLQTYDDLLAKDCHCI
chain 2: CPPCPAPEAAGGPSVFLFPPKPKDTLMISRTPEVTCVVVDVSQEDPEVQFNWYVDGVEVHNAKTKPREEQFNSTYRVVSVLTVLHQDWLNGKEYKCKVSNKGLPSSIEKTISKAKGQPREPQVYTLPPSQEEMTKNQVSLWCLVKGFYPSDIAVEWESNGQPENNYKTTPPVLDSDGSFFLYSRLTVDKSRWQEGNVFSCSVMHEALHNHYTQKSLSLSLGK
notes: also called Fc-GDF15 ligand
no binding (tested: 5 µg/ml): all assays above
